Results as given in patent publication US20220288203A1.

B1: Humanized Podo447 (humanized_podo447VH_hIgG1C + humanized_podo447VL6_hIgkC) (antibody, V domains shown)
VH: EVQLVESGGGLVQPGRSLRLSCTASGFSLSGYQMNWVRQAPGKGLEWVGYIWSDGGTDYTASVKGRFTISRDGSKSIAYLQMNSLKTEDTAVYYCAREGYWLGAFDPWGQGTSVTVSA
VL: AAQLTQSPSPLSASVGDRVTITCQSSQSVHHKNDLAWYQQKPGKAPKLLIYYTSTLASGVPSRFSGSGSGTDFTLTISSLQPEDFATYYCAGVYEGSSDNRAFGGGTKVEIKR
B2: Podo447, recombinant rabbit/human chimeric anti-podocalyxin antibody (rabbit V genes, human IgG1 and kappa constant regions) (antibody, V domains shown)
VH: QSLEESGGRLVTPGTPLTLTCTASGFSLSGYQMNWVRQAPGKGLEWIGYIWSDGGTDYASWAKGRFTISKTSSTTVDLKMTSLTTEDTATYFCAREGYWLGAFDPWGPGTLVTVSS
VL: AAVLTQTPSPVSAAVGATVSVSCQSSQSVHHKNDLAWFQQKPGQPPKLLIYYTSTLASGVPSRFKGSGSGTQFTLTISDLECDDAATYYCAGVYEGSSDNRAFGGGTEVVVKR

Experiments:
[1] = target: Human podocalyxin as endogenously expressed and displayed by tumor cell lines (A172, SKOV3, MIA PaCa-2, MDA-MB-231) (human) (UniProt O00592); assay: flow cytometry titration on A172 cells, four-parameter fit (Prism)
[2] = target: Human podocalyxin as endogenously expressed and displayed by tumor cell lines (A172, SKOV3, MIA PaCa-2, MDA-MB-231) (human) (UniProt O00592); assay: KinExA 3200; titrated A172 cells with constant antibody, 16 h equilibrium
[3] = target: Human podocalyxin as endogenously expressed and displayed by tumor cell lines (A172, SKOV3, MIA PaCa-2, MDA-MB-231) (human) (UniProt O00592); assay: KinExA 3200; titrated A172 cells with constant antibody, 16 h equilibrium, free antibody measured

Human podocalyxin as endogenously expressed and displayed by tumor cell lines (A172, SKOV3, MIA PaCa-2, MDA-MB-231) (human), sequence (O00592 23-558): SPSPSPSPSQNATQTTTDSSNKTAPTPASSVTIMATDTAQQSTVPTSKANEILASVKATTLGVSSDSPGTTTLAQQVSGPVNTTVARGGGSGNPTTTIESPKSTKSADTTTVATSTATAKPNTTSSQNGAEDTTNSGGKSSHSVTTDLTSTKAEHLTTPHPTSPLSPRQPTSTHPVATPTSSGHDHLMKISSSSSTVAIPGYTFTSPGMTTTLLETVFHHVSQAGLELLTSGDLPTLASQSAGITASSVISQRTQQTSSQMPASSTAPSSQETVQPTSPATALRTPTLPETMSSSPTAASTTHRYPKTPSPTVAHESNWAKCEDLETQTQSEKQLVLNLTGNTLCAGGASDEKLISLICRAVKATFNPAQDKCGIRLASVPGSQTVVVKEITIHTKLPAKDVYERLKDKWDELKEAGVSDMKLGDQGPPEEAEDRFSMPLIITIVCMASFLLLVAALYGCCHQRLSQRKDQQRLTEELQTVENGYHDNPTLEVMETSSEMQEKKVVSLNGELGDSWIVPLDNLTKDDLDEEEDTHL

| Binder | Bottom (best-fit) [1] | LogIC50 [1] | Span (best-fit) [1] | Top (best-fit) [1] | Epitopes/Cell (epitopes/cell) [2] | Kd High [2] [pM] | Kd Low [2] [pM] | Kd [3] [pM] |
| --- | --- | --- | --- | --- | --- | --- | --- | --- |
| B1 | 1940 | 2.09 | 236000 | 238000 | 233000 | 45.9 | 4.59 | 14.4 |
| B2 | 8630 | 2.28 | 371000 | 380000 | 420000 | 24.9 | 2.3 | 7.57 |
